How the values were obtained:
Assay in all cases: ProtoArray, GST-treated control array;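 also: human protein microarray (about 9500 recombinant proteins) incubated overnight with GST alone plus SAM cofactor as the negative control for G9a SET domain methylation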
[1] = target: T1, MOBKL3-Mps one binder kinase activator-like 3 (human, UniProt Q9Y3A3 1-225, limits assumed)
T1 sequence (looked up): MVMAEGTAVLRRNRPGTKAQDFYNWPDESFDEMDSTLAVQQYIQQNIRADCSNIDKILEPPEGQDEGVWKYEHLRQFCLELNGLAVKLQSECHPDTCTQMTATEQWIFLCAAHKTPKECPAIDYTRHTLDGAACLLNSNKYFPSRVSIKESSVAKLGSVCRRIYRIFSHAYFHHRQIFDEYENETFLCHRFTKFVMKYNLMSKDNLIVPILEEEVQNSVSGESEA

[2] = target: T2, C12orf62-chromosome 12 open reading frame 62 (C12orf62) (human, UniProt Q96I36 1-57)
T2 sequence (looked up): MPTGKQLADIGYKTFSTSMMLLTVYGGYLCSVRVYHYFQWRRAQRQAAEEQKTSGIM

[3] = target: T3, GFOD1-Glucose-fructose oxidoreductase domain-containing protein 1 (human, UniProt Q9NXC2 22-390, limits assumed)
T3 sequence (looked up): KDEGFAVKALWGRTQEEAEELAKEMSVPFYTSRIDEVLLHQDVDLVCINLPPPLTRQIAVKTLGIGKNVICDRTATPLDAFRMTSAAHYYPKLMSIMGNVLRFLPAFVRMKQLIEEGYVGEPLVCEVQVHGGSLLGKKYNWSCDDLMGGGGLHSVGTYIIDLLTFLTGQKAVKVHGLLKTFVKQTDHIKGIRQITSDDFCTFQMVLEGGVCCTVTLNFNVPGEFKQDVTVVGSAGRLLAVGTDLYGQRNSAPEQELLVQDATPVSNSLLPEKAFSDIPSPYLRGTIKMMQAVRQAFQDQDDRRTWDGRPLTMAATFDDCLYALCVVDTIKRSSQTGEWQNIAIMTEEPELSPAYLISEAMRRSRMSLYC

[4] = target: T4, SH3YL1-SH3 domain containing, Ysc84-like 1 (S. cerevisiae) (SH3YL1) (human, UniProt Q96HL8 1-342, limits assumed)
T4 sequence (looked up): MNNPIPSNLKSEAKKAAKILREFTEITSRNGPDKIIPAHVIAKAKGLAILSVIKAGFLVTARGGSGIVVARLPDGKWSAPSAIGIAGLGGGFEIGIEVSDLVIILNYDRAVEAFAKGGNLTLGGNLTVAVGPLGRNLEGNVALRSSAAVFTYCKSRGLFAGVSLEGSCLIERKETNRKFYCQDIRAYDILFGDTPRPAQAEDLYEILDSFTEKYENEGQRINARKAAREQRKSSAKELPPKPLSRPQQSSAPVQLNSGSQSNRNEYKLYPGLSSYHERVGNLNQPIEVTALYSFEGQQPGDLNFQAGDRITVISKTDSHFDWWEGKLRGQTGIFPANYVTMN

[5] = target: T5, CDKL5-Cyclin-dependent kinase-like 5 (human, UniProt O76039-1 1-1030, limits assumed)
T5 sequence (looked up): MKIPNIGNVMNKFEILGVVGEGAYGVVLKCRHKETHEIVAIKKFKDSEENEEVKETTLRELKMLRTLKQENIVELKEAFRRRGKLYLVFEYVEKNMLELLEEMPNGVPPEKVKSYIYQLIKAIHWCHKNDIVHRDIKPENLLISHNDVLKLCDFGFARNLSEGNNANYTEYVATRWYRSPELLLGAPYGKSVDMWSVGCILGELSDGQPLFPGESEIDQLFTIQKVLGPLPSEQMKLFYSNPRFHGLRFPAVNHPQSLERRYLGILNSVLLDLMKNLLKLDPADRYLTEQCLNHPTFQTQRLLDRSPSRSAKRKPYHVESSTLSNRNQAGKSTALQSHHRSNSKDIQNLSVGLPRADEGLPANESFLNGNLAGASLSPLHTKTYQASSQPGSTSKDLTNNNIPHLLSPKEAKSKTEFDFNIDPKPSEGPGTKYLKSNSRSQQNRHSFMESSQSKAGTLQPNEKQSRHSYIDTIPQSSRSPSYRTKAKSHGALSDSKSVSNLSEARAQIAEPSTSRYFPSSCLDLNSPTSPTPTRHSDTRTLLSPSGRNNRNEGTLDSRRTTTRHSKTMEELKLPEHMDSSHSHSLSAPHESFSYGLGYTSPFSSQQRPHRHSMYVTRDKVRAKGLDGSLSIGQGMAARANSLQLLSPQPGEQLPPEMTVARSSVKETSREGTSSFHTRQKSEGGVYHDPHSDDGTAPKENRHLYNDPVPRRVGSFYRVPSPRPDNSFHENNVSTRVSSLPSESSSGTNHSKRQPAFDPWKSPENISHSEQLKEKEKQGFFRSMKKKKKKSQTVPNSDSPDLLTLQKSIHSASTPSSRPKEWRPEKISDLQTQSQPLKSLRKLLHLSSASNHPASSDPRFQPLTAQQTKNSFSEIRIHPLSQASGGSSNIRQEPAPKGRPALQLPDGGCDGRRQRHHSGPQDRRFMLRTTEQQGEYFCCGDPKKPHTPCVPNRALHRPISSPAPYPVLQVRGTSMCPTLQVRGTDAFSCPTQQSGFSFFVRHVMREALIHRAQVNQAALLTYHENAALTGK

[6] = target: MGC4473-hypothetical protein MGC4473 (MGC4473) (human)
[7] = target: T6, RDH11-retinol dehydrogenase 11 (all-trans/9-cis/11-cis) (RDH11) (human, UniProt Q8TC12 1-318, limits assumed)
T6 sequence (looked up): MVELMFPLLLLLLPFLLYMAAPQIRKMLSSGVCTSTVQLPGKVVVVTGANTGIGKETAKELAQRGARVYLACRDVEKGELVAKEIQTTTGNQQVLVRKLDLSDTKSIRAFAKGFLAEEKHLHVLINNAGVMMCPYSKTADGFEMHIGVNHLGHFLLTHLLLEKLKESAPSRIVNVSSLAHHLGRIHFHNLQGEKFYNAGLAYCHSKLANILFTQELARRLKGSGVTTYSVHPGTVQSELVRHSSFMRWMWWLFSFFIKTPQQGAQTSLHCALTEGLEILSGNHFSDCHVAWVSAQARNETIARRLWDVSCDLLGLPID

[8] = target: T7, LRRC20-leucine rich repeat containing 20 (LRRC20) (human, UniProt Q8TCA0 1-184, limits assumed)
T7 sequence (looked up): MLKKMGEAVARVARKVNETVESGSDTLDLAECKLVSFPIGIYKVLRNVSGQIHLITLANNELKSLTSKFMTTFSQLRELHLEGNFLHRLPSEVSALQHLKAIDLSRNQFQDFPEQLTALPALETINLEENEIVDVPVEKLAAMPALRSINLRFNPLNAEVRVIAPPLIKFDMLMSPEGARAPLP

GST Average SNR [1]: -0.451
GST Average SNR [2]: 0.575
GST Average SNR [3]: 0.413
GST Average SNR [4]: 0.377
GST Average SNR [5]: 1.43
GST Average SNR [6]: 0.0125
GST Average SNR [7]: 0.0685
GST Average SNR [8]: 1.4
B1: 3× Flag-3×MBT (designed binder)
chain: EEWSSSQPATGEKKECWSWESYLEEQKAITAPVSLFQDSQAVTHNKNGFKLGMKLEGIDPQHPSMYFILTVAEVCGYRLRLHFDGYSECHDFWVNANSPDIHPAGWFEKTGHKLQPPKGYKEEEFSWSQYLRSTRAQAAPKHLFVSQSHSPPPLGFQVGMKLEAVDRMNPSLVCVASVTDVVDSRFLVHFDNWDDTYDYWCDPSSPYIHPVGWCQKQGKPLTPPQDYPDPDNFCWEKYLEETGASAVPTWAFKVRPPHSFLVNMKLEAVDRRNPALIRVASVEDVEDHRIKIHFDGWSHGYDFWIDADHPDIHPAGWCSKTGHPLQPPLGPREPSSASPGG
notes: also called Flag-tagged 3×MBT; 3xFlag-3xMBT; not shown: made by PreScission cleavage of GST-3× Flag-3×MBT

Reference: patent US20140274782A1 (Stanford University, published 2014)
